Reference: a protein production outcome set (Wang et al. 2014)

Assay: label from the status in PepcDB records

Row | Sequence | protein production
1 | MNEKSFNYDFSVIMPIYNVELYLTEAIESIINQTIGFENIQLILVNDDSPDKSEIICKEYAQKYPNNIVYAKKQNGGVSSARNYGLKYAEGRYIQFLDPDDLVSEGTFENVLNFFDEHKNEIDIVAIPIFFAEGRTGEHNLNNKFSSTRILDVEKEPHHILTHCCSTFIKKDALKNIRFDENCKIGEDAKLVNLIISQKKKYGLVKEAKYHYRVREDGSSAMQTAKANKNWFNHSLITFSKNLIDIIKNHEQKIPLFLQYMVMHDLKWKLLIKDISETPLDENEYSEFLTLIREVLSYIDDDVIIETKSVSHFYLYHALKIKHGENYSRYVYERETEQDYYLYREGKIVSKLSDQTLTIEILEENEDSIHIEGFWSSLFNSKGFKFYAKIGETKIKAKNIKRQHNDYISLGEVIKKYPGFSIDIPKGHLADNHHIEFFITKGKKRKLTKLRFFKYSGLSNDLYNTYVAKKDYIFYYNYKKLMFKKNNFKNRFIKEFRFLKSLHKSGEKSKKRKSAIKKALMARMVHHVFTIFNRKPVWLFIDRQDKADDNAEHLFKYAINKNDGVKKYFIIKKDSKDYDRIKKYGKVIPYRSFRHKILTLSSSKVISTHADIWVVNPFFNMEIYFRDLFNFEFIFLQHGITMADHSEWLNKYNKNIKLLVTSAKPEYRSIVKGNYNYKKENILLGGFPRYDNLKKSEGEKQLLIMPTWRKDIVLPKDQAKGVRPYNPKFKDSEYFSRYNALINDERLIEFAKKNNYKITFFPHPDIQQQIVDFEKHDYVEFADYNSSYQMLFNSSNIMITDFSSVAFDFAYEKKPVIYYQYEKSYHFKLDYYDYKKMGFGDVLENHNSLVDKVIYYMKNNSRMEDKYRKRVDNFFAYTDKNNRNRIYNAILELDNNKVAK | failed
2 | MMRAWIQLVIAIGVEIVGTSLLKLSSGFKYPLIGIVGMLLYGLAIFSFSRALSKIPLSVGYAIWAGVGTAATGLIGIWAFGEILTGLKTLGFMAIITGVILLNMPAKTTKSTTATPRSARWRTRFNR | failed
3 | MSDILKFSVVIPVYNGSNTVTRAVDSCLKQTTLPWEIIIVNDCSKDNTLDVLIENYQGNNIVKIYSLPKNSGVSVARNLGWDKATGDFIAFLDADDVWHPSKLEVLNELKHGYKDVSCIAHKYTENSLPEEKKIMPKCKILKFRHFLIRNYFNTSCLAVCKCIGERFNETMRYTEDHDLCLRIANKMNIYYIDLPLTSLGRPQLSKGGLSGNQWAMRKGEMKLYFHACKLRWWLFPCLPLFFLFSIAKHLLKLGMRCMK | failed
4 | MSSDAVSKYTPGIYRTSIRLNNNTFDVEVTVDQDQIQSIHLANLSESTSAMFPLVEPVLDSLSSQIYSGQSLDDLEYSSDQKYTALMLIHAIDEAVTKAEADLEHHHHHH | not failed
5 | MLKKVQEHLPRQLLPAPDAITAFCHLIANWSRSELVLALTVDQQGNRAQIITTTSTKFPNLEIIAPWRDLVQGTVIDVLPFLKLPSIFFCLLSKVERIVYIPCGEPEKWCQGLLLVNPVEEPLQQLAEQKGYIAALYRQLLIHHRQSQNSFIFEAQFQDIFDTVPLGLVLIKGDSSTAMVNSYAAQWLQLPPGSHPVQIVAEHMKQGWERCDNCDELVNLFQGLAANANFSAQGECRRGEKTFLIDTHPVRGDSRLGRVWIFSDISDMRQREQALLALAWLDPLTGAFNRRFLLSRVEAYESQAATGEALLTVMIFDIDHFKRINDTYGHDQGDVVLRTLAARAKQVLESCQDGILVRWGGEEFVLLFFVAYEDQAKAVAEELCSVVRSQPVELTDQYSLSVTISLGVTLFRGGEQVLSDSIPRADQALYEAKHGGRDRWVWA | failed
6 | MLLSHIMGMDYIMSIITLALLLLAEILVAIILIGVSIEICSYGWKKSNGIKYSCLLLSLLLGTASILGLLAAPAYFFIQLTEKAL | failed
7 | MDFVEFWSQLIRNVRWRRACVLALIVLTLYLASSMMSIILLTFIFTFLVTRLVRAVRRWVKIPPTIIVLVVYALVILGIYFAVSIYLPQLIKQTFLTFESVYRFYQNPSHDTNQVLTWVTSYFQESDILKQLKGGISVVFQYITNIGNMGLTFFLSFILSFFFTIEDHQMRVFTKRFLTSTFGWFFQDVHFFAKKFVNSFGVVLEAQFLIAIVNTVITVTFMAILKMPQLISLGLMIFILSLIPVAGVIISVVPLSLIAYSVGGLRYVVYMLLMILVVHALEAYVLNPKFMSSRTELPIFYTFVVLLVSERLFGVWGLIVGVPIFNFILDIIGVKPVHRPRPNINLKKTITFHPDSENKR | failed
8 | MSLIIDGHTHVILPVEKHIKIMDEAGVDKTILFSTSIHPETAVNLRDVKKEMKKLNDVVNGKTNSMIDVRRNSIKELTNVIQAYPSRYVGFGNVPVGLSENDTNSYIEENIVNNKLVGIGELTPASGQIKSLKPIFKYSMDSGSLPIWIHAFNPLVLQDIKEIAELCKAFPKVPVILGHMGGSNWMTAVELAKEIQNLYLDTSAYFSTFVLKIVINELPLKCIFGTDMPFGDLQLSIEAIKKMSNDSYVANAVLGDNISRLLNIEGHHHHHH | not failed
